{"source": "patent US20230242902A1", "about": "“A HIGHLY ERROR-PRONE […] R[…] FOR TARGETED CONTINUOUS EVOLUTION IN VIVO” (The Regents of the University of California, priority 2017, published 2023)", "key": {"[1]": {"test_system": "p2-encoded leu2*", "test": "p2 leu2* fluctuation tests in GA-Y021 (p2 mutation rate reporter strain)", "format": "cell-based, S. cerevisiae", "conditions": "for change in p2 mutation rate by TP-DNAP1: GA-Y021, noncognate polymerase in trans, mutual orthogonality experiment", "in_short": "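Yeast GA-Y021 carrying wt TP-DNAP2 plus variants in trans; replicate cultures grown 48 h at 30° C in pH 5.8 SC dropout, spot-plated on leucine-free medium, colonies counted after 5 days. m by p0 method (six replicates) or Ma-Sandri-Sarkar MLE (36–48 replicates), normalized to titer, p2 copy number (mKate2) and 2.33 bp target.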"}, "[2]": {"test_system": "genomic URA3 locus", "test": "Fluctuation tests of genomically encoded URA3 in the presence of TP-DNAP2 variants (AR-Y436)", "format": "cell-based, S. cerevisiae", "conditions": "for per-base substitution rate at genomic URA3 locus: TP-DNAP2 in trans, AR-Y436, (95% C.I.)", "procedure": "Fluctuation tests using genomically encoded URA3 were performed in the presence of TP-DNAP2 variants to determine the genomic per-base substitution rates, similarly to previously described protocols (Lang and Murray, 2008, Genetics, 178:67-82). AR-Y292 derived strains harboring the appropriate TP-DNAP2 variant encoded on a CEN6/ARS4 vector (with a HIS3 marker) were grown in liquid SC medium lacking uracil and histidine until saturation. Each strain was diluted 1:5,000 into SC medium lacking histidine and aliquoted into 48 replicates of 200 μL each. Cultures were grown for 48 hours at 30° C. to reach saturation. Saturated cultures were washed with 400 μL 0.9% NaCl and resuspended in 420 μL 0.9% NaCl. 400 μL from each replicate was spot plated on pre-dried solid SC medium lacking histidine and supplemented with 5-FOA (1 g/L). The residual 20 μL from six replicates were pooled, diluted, and plated on solid YPD medium to determine cell titers. Plates were allowed to dry before incubation at 30° C. Colonies were counted on titer plates after 2 days, and on spot plates after 5 days of growth. The expected number of mutants (m) was calculated using the MSS maximum likelihood estimator method via the FALCOR tool, and corrected for partial plating, as described above. To determine per-base substitution rates, the corrected m was normalized to the average cell titer, the URA3 copy number (1 in haploid yeast), and the target size for 5-FOA resistance via substitutions in URA3 (104 bp). 95% confidence intervals were similarly scaled.\nLike p1 replication by TP-DNAP1, p2 replication by TP-DNAP2 occurs in the cytoplasm via a protein-primed mechanism, making it likely that p2 replication is orthogonal to host genome replication. To test this, CEN6/ARS4 vectors lacking TP-DNAP2, or encoding codon optimized versions of TP-DNAP2^WT, TP-DNAP2^S370Q, or TP-DNAP2^Y424Q were transformed into AR-Y436. AR-Y436 contains wt p1 and p2, as well as an intact URA3 locus in the host genome. Genomic per-base substitution rates were determined via fluctuation tests based on the frequency of 5-FOA resistant clones arising from mutations in the genomic URA3 locus, as previously described (Ravikumar et al., 2014, Nature Chemical Biology, 10:175-177; Lang and Murray, 2008, Genetics, 178:67-82). The substitution rich spectrum of URA3-disabling mutations makes this assay ideal for detecting whether the elevated substitution rate of TP-DNAP2^S370Q or TP-DNAP2^Y424Q contributes to genomic mutation. No increase in the host genomic mutation rate was observed when error-prone variants of TP-DNAP2^S370Q and TP-DNAP2^Y424Q were present (Table 8)."}}, "data": [{"molecule": "WT: wild-type Kluyveromyces lactis DNA polymerase TP-DNAP2, SEQ ID NO:13 (protein, listed as Kluyveromyces lactis) MNDELAFLNSQIDDYSDDIEFLRTEVFRINRYSKSIYSLMKNSSKEAIKETIEFNKYGQEIHSKIKEKEISLIEAIKLMEKKYKYLRSLNKTKDKSKKKKIHTKDIETLKTIYKTKADFDIRNFKNAETFTYENYSLLIPSEKELIDLIPEIEEDYSYYFYVSLTITGPTIFGGVTRKVPIIDTYGDINKDFYNKIKENITKVLDRVPFYEEKESEIICKKVLITLTVNKWESIDKWYKNVKSKSKKFKDFTLFLASDTSKNCVQQCVEYLGGKWNTNYSLEKMIPQQKIVTYIPLLMDIQYVQSMEDLISDFDEPNTDCKNIARLLKWNGHMGVITKIDKDVKINRIQRKRIIDVENKEVKEVFFDIESFSDETKHQIPYLICWSYLGELYYRTGKNCIKEFVEEILSYNVDIILYAWYGSGYDYQHVLPYMKSKCIKDKYIIKNNMITYGELYYENAIIYLKDPYLFILTSLDKASKAFNVINKGEFPHSIIHSWEDLNKILPNWVKIQKRMIEYKDDNKLNIYYKNIEIFENDRNYNTILENAIEYCKVDVLAMEKVWIKFKKLLEKNLNITVSVKTFTLSQLSMKIMESKLPKYVKLYVPTLEEYSKIRNAIYGGRVISKNGIYEENIVYADVVSLYPSAMKLLKHSYGKPKLVDYIDFEKHGIYRVTLLNKHDQEPKNYLNFVPRRINRKLTWEWFKIHEGWYHTYDLIIAKSEGFDIYCHEGFEYPEKDYIFNDFIDTLYSMKETHTACSCEEQPCPIRMVAKIALNGGGYGKFVQKPIDKEIYIVKRDVVAGECDKLQENENGEICIGKRLVKRPLFYNLDSENYDKMIIEKEDEPIYSTQCGISILSASRYRLYKLCKQFENIDIIYSDTDSIFVKQKSVDWELFKSKCGSELGQLDSTIDDTKNAIISKMYIGGAKMYAFEYLNNKNKLITKLHCKGVPNYMLSLNQFKYLMESPDNTIAYKFEIIRRKLVNVITKDLIKDIKQT", "values": [{"measurement": "specificity for p2 over p1", "setting": "[1]", "result": "at least 29 fold"}, {"measurement": "mutation rate of p2-delORF1-mUL* replication", "setting": "[1]; GA-Y021, wt TP-DNAP2 encoded on p2", "result": "5.96×10^−10 s.p.b."}, {"measurement": "per-base substitution rate at genomic URA3 locus", "setting": "[2]", "result": "2.2 (1.2-3.4) ×10^−10"}]}, {"molecule": "S370Q: TP-DNAP2 variant (protein, listed as Kluyveromyces lactis) MNDELAFLNSQIDDYSDDIEFLRTEVFRINRYSKSIYSLMKNSSKEAIKETIEFNKYGQEIHSKIKEKEISLIEAIKLMEKKYKYLRSLNKTKDKSKKKKIHTKDIETLKTIYKTKADFDIRNFKNAETFTYENYSLLIPSEKELIDLIPEIEEDYSYYFYVSLTITGPTIFGGVTRKVPIIDTYGDINKDFYNKIKENITKVLDRVPFYEEKESEIICKKVLITLTVNKWESIDKWYKNVKSKSKKFKDFTLFLASDTSKNCVQQCVEYLGGKWNTNYSLEKMIPQQKIVTYIPLLMDIQYVQSMEDLISDFDEPNTDCKNIARLLKWNGHMGVITKIDKDVKINRIQRKRIIDVENKEVKEVFFDIEQFSDETKHQIPYLICWSYLGELYYRTGKNCIKEFVEEILSYNVDIILYAWYGSGYDYQHVLPYMKSKCIKDKYIIKNNMITYGELYYENAIIYLKDPYLFILTSLDKASKAFNVINKGEFPHSIIHSWEDLNKILPNWVKIQKRMIEYKDDNKLNIYYKNIEIFENDRNYNTILENAIEYCKVDVLAMEKVWIKFKKLLEKNLNITVSVKTFTLSQLSMKIMESKLPKYVKLYVPTLEEYSKIRNAIYGGRVISKNGIYEENIVYADVVSLYPSAMKLLKHSYGKPKLVDYIDFEKHGIYRVTLLNKHDQEPKNYLNFVPRRINRKLTWEWFKIHEGWYHTYDLIIAKSEGFDIYCHEGFEYPEKDYIFNDFIDTLYSMKETHTACSCEEQPCPIRMVAKIALNGGGYGKFVQKPIDKEIYIVKRDVVAGECDKLQENENGEICIGKRLVKRPLFYNLDSENYDKMIIEKEDEPIYSTQCGISILSASRYRLYKLCKQFENIDIIYSDTDSIFVKQKSVDWELFKSKCGSELGQLDSTIDDTKNAIISKMYIGGAKMYAFEYLNNKNKLITKLHCKGVPNYMLSLNQFKYLMESPDNTIAYKFEIIRRKLVNVITKDLIKDIKQT", "values": [{"measurement": "fold increase of p2 mutation rate", "setting": "[1]; GA-Y021, mutual orthogonality experiment, 48 replicates", "result": 29, "unit": "fold"}, {"measurement": "Per-base substitution rate pf p2", "setting": "[1]; TP-DNAP2 variant in trans, wt TP-DNAP2 in cis, 36 replicates, (95% C.I.)", "result": "83.0 (62.8-105) ×10^−10"}, {"measurement": "Fold increase", "setting": "[1]; p2 substitution rate over no variant in trans", "result": 13.9}, {"measurement": "fold increase of p2 substitution mutation rate", "setting": "[1]; reconfirmation, 36 replicates", "result": "~14", "unit": "fold"}, {"measurement": "per-base substitution rate at genomic URA3 locus", "setting": "[2]", "result": "1.8 (1.0-2.8) ×10^−10"}, {"measurement": "host genomic mutation rate", "setting": "[2]; error-prone TP-DNAP2 variant present", "result": "No increase"}]}, {"molecule": "TP-DNAP1-4-2: TP-DNAP1 variant (L477V, L640Y, I777K, W814N), encoded by SEQ ID NO:11 (protein, listed as Kluyveromyces lactis) MDYKDKALNDLRNVYADFDSLPLDFRQILIKDRATLLQKEDVEKKILERQEDAKKYAEYLKQSEIPERISLPNIKRHKGVSISFEETSEDMVLEPRPFIFDGLNIRCFRRETIFSLKNKILNMVKESSSFKNVSRQSVSFMYFKIFNKGKVIASTKSVNIYEDKIDERLEDLCNNFDDVLKKIIDVTYGYESLFVSETYSYVIFYAKSIYFPQPRCVNNWGNNIPNILTFDSFKLFTANKNNVSCIKQCSRFLWQKDFNTLEEMIEYKNGNICIVTPQLHINDVRDIKSFNDIRLYSESPIKTFSVIDNTITYLFYFKEHLGVIFNITKSRHDRRVTKFSPLSKFSDVKNITVCFDIESYFDPEKESNQVNIPFICCASIIYNKVIGNIVDFEGRDCVAQMIEYVVDICGELNISSVELIAHNGGGYDFHYILSSMYNPAAIKNILIRNNSFISFNFAHDGVKFSVKDSYSFLLCSVANASKAFLNEETFKKTDFPHHDLKTADDLYKVYKEWSSVNTEINHVVEKEKLLITSEHIVNFTKNDKSKTLIEWSKDYCRNDVLVLSKVWLEFKNAVEDIFNCELVDQTMTLAGLSYKLFQANMPFDVELRHPNKEDYFNMREALIGGRCISVNGIYKDVLCYDVKSLYPASMAFYDQPYGSFKRVSSRPKDELGIYYVRVTPNRNNKSNFFPIRSHNKITYNNFEESTYIAWYTNVDIDIGLSEGHNIEYIPFDSYGNIGYSWSKKGKIFEKYIKDVLYKLKIKYEKQNNKVKRNVIKKIMNSLWGKFAQKWVNFEYFIKSEDDIDFESEEAYKINDTDFMLIKKIKESTYSSKPIQNGVFTLSWARYHMKSIWDAGAKEGAECIYSDTDSIFVHKEHFKKNAKFMLNGLKVPIIGSEVGQLELECEFDKLLCAGKKQYMGFYTYFQDGKPCIKEKKRFKGIPSNYIIPELYAHLLSGADKEAKIQFLKFRREWGSVKGYIENKTVKAT", "values": [{"measurement": "change in p2 mutation rate by TP-DNAP1", "setting": "[1]", "result": "no statistically significant change"}]}, {"molecule": "w.t.: wild-type Kluyveromyces lactis DNA polymerase TP-DNAP1, SEQ ID NO:1 (protein, listed as Kluyveromyces lactis) MDYKDKALNDLRNVYADFDSLPLDFRQILIKDRATLLQKEDVEKKILERQEDAKKYAEYLKQSEIPERISLPNIKRHKGVSISFEETSEDMVLEPRPFIFDGLNIRCFRRETIFSLKNKILNMVKESSSFKNVSRQSVSFMYFKIFNKGKVIASTKSVNIYEDKIDERLEDLCNNFDDVLKKIIDVTYGYESLFVSETYSYVIFYAKSIYFPQPRCVNNWGNNIPNILTFDSFKLFTANKNNVSCIKQCSRFLWQKDFNTLEEMIEYKNGNICIVTPQLHINDVRDIKSFNDIRLYSESPIKTFSVIDNTITYLFYFKEHLGVIFNITKSRHDRRVTKFSPLSKFSDVKNITVCFDIESYFDPEKESNQVNIPFICCASIIYNKVIGNIVDFEGRDCVAQMIEYVVDICGELNISSVELIAHNGGGYDFHYILSSMYNPAAIKNILIRNNSFISFNFAHDGVKFSVKDSYSFLLCSLANASKAFLNEETFKKTDFPHHDLKTADDLYKVYKEWSSVNTEINHVVEKEKLLITSEHIVNFTKNDKSKTLIEWSKDYCRNDVLVLSKVWLEFKNAVEDIFNCELVDQTMTLAGLSYKLFQANMPFDVELRHPNKEDYFNMREALIGGRCISVNGIYKDVLCLDVKSLYPASMAFYDQPYGSFKRVSSRPKDELGIYYVRVTPNRNNKSNFFPIRSHNKITYNNFEESTYIAWYTNVDIDIGLSEGHNIEYIPFDSYGNIGYSWSKKGKIFEKYIKDVLYKLKIKYEKQNNKVKRNVIKIIMNSLWGKFAQKWVNFEYFIKSEDDIDFESEEAYKIWDTDFMLIKKIKESTYSSKPIQNGVFTLSWARYHMKSIWDAGAKEGAECIYSDTDSIFVHKEHFKKNAKFMLNGLKVPIIGSEVGQLELECEFDKLLCAGKKQYMGFYTYFQDGKPCIKEKKRFKGIPSNYIIPELYAHLLSGADKEAKIQFLKFRREWGSVKGYIENKTVKAT", "values": [{"measurement": "change in p2 mutation rate by TP-DNAP1", "setting": "[1]", "result": "no effect"}]}]}
